Experimental data as given in paper PMC9482650, “Quantitative fragmentomics allow affinity mapping of interactomes” (Nature Communications, 2022).

T1: PDZRN3_1, Q9UPQ7
T1 sequence (Q9UPQ7 244-349, limits assumed, looked up): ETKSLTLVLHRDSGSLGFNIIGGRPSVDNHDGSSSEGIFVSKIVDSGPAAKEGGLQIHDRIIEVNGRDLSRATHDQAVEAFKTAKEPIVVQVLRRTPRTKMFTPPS

T2: TX1BP3, O14907
T2 sequence (O14907 10-122, limits assumed, looked up): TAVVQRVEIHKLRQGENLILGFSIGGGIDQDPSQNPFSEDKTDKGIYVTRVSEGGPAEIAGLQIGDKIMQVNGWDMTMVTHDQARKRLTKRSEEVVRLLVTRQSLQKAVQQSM

T3: APBA2_2, Q99767
T3 sequence (Q99767 654-744, limits assumed, looked up): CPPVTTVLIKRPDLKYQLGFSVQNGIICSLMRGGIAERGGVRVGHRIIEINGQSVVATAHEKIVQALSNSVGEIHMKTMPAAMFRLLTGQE

T4: GRIP1_3, Q9Y3R0
T4 sequence (Q9Y3R0 247-346, limits assumed, looked up): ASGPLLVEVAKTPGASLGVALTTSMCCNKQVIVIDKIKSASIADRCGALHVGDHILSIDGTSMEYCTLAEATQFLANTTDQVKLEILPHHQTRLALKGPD

T5: GRIP1_5, Q9Y3R0
T5 sequence (Q9Y3R0 568-668, limits assumed, looked up): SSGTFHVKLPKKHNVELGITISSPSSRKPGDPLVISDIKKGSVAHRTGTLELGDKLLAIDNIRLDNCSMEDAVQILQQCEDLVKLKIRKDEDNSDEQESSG

T6: SNTB1, Q13884
T6 sequence (Q13884 107-205, limits assumed, looked up): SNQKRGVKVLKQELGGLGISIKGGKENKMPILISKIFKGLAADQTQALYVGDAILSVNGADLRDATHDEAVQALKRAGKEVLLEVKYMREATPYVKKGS

T7: RADIL, Q96JH8
T7 sequence (Q96JH8 971-1071, limits assumed, looked up): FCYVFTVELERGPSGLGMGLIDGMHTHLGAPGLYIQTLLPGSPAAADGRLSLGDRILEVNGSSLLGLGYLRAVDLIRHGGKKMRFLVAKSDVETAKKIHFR

B1: TMEM225B, P0DP42 (peptide)
chain: ETQVTAETVI

Target: T1, PDZRN3_1, Q9UPQ7
Assay: holdup assay
Set-up: key: below the threshold = too weak to quantify, mostly under pKd 3.1 to 4
Conditions: plain residues with an end cap or a label only (N-terminal biotin on a linker: ado-ado)

Row | Binder | pKd
1 | B1 | below the threshold

Target: FRMPD3, Q5JV73
Sequence (Q5JV73 12-100): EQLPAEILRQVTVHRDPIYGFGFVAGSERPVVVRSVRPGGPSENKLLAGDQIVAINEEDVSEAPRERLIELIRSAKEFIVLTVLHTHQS
Assay: holdup assay
Set-up: key: below the threshold = too weak to quantify, mostly under pKd 3.1 to 4
Conditions: plain residues with an end cap or a label only (N-terminal biotin on a linker: ado-ado)

Row | Binder | pKd
2 | B1 | below the threshold

Target: LNX1_2, Q8TBB1
Sequence (Q8TBB1 371-470): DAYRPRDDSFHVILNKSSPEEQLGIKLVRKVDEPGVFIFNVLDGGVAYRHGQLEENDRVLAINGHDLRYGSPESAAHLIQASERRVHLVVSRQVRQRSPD
Assay: holdup assay
Set-up: key: below the threshold = too weak to quantify, mostly under pKd 3.1 to 4
Conditions: plain residues with an end cap or a label only (N-terminal biotin on a linker: ado-ado)

Row | Binder | pKd
3 | B1 | below the threshold

Target: Inadl_1, Q8NI35
Sequence (Q8NI35 113-229): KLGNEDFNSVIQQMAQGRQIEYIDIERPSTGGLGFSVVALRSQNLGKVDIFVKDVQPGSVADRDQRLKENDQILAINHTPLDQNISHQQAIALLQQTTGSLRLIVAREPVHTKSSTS
Assay: holdup assay
Set-up: key: below the threshold = too weak to quantify, mostly under pKd 3.1 to 4
Conditions: plain residues with an end cap or a label only (N-terminal biotin on a linker: ado-ado)

Row | Binder | pKd
4 | B1 | below the threshold

Target: MAGI2_6, Q86UL8
Sequence (Q86UL8 1141-1229): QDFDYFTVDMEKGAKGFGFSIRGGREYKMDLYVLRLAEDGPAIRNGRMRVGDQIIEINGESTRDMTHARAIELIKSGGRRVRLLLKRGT
Assay: holdup assay
Set-up: key: below the threshold = too weak to quantify, mostly under pKd 3.1 to 4
Conditions: plain residues with an end cap or a label only (N-terminal biotin on a linker: ado-ado)

Row | Binder | pKd
5 | B1 | below the threshold

Target: T2, TX1BP3, O14907
Assay: holdup assay
Set-up: key: below the threshold = too weak to quantify, mostly under pKd 3.1 to 4
Conditions: plain residues with an end cap or a label only (N-terminal biotin on a linker: ado-ado)

Row | Binder | pKd
6 | B1 | below the threshold

Target: T3, APBA2_2, Q99767
Assay: holdup assay
Set-up: key: below the threshold = too weak to quantify, mostly under pKd 3.1 to 4
Conditions: plain residues with an end cap or a label only (N-terminal biotin on a linker: ado-ado)

Row | Binder | pKd
7 | B1 | below the threshold

Target: SNX27, Q96L92
Assay: holdup assay
Set-up: key: below the threshold = too weak to quantify, mostly under pKd 3.1 to 4
Conditions: plain residues with an end cap or a label only (N-terminal biotin on a linker: ado-ado)

Row | Binder | pKd
8 | B1 | 5.39

Target: MAGI2_5, Q86UL8
Sequence (Q86UL8 915-1017): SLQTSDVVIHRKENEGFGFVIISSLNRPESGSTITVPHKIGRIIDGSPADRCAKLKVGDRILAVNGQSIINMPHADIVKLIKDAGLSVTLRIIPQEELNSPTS
Assay: holdup assay
Set-up: key: below the threshold = too weak to quantify, mostly under pKd 3.1 to 4
Conditions: plain residues with an end cap or a label only (N-terminal biotin on a linker: ado-ado)

Row | Binder | pKd
9 | B1 | below the threshold

Target: T4, GRIP1_3, Q9Y3R0
Assay: holdup assay
Set-up: key: below the threshold = too weak to quantify, mostly under pKd 3.1 to 4
Conditions: plain residues with an end cap or a label only (N-terminal biotin on a linker: ado-ado)

Row | Binder | pKd
10 | B1 | below the threshold

Target: GORASP1, Q9BQQ3
Sequence (Q9BQQ3 1-208): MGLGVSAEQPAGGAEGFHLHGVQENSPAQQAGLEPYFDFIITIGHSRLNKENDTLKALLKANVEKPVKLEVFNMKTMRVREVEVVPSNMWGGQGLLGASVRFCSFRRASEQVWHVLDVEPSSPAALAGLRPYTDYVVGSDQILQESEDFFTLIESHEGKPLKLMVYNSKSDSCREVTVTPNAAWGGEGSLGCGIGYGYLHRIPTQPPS
Assay: holdup assay
Set-up: key: below the threshold = too weak to quantify, mostly under pKd 3.1 to 4
Conditions: plain residues with an end cap or a label only (N-terminal biotin on a linker: ado-ado)

Row | Binder | pKd
11 | B1 | 3.67

Target: T5, GRIP1_5, Q9Y3R0
Assay: holdup assay
Set-up: key: below the threshold = too weak to quantify, mostly under pKd 3.1 to 4
Conditions: plain residues with an end cap or a label only (N-terminal biotin on a linker: ado-ado)

Row | Binder | pKd
12 | B1 | below the threshold

Target: SCRIB_2, Q14160
Sequence (Q14160 857-960): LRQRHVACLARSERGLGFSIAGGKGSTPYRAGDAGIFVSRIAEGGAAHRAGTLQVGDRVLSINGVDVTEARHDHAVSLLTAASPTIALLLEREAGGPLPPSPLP
Assay: holdup assay
Set-up: key: below the threshold = too weak to quantify, mostly under pKd 3.1 to 4
Conditions: plain residues with an end cap or a label only (N-terminal biotin on a linker: ado-ado)

Row | Binder | pKd
13 | B1 | below the threshold

Target: MAGI1_2, Q96QZ7
Sequence (Q96QZ7 456-580): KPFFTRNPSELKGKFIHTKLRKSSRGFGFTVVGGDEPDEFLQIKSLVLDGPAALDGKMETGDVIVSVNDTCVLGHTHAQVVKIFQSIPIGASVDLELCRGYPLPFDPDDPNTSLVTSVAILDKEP
Assay: holdup assay
Set-up: key: below the threshold = too weak to quantify, mostly under pKd 3.1 to 4
Conditions: plain residues with an end cap or a label only (N-terminal biotin on a linker: ado-ado)

Row | Binder | pKd
14 | B1 | below the threshold

Target: CASK, O14936
Sequence (O14936 487-570): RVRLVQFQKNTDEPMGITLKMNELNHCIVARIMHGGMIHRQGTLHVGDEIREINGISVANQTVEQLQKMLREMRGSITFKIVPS
Assay: holdup assay
Set-up: key: below the threshold = too weak to quantify, mostly under pKd 3.1 to 4
Conditions: plain residues with an end cap or a label only (N-terminal biotin on a linker: ado-ado)

Row | Binder | pKd
15 | B1 | below the threshold

Target: GRIP2_7, Q9C0E4
Sequence (Q9C0E4 934-1023): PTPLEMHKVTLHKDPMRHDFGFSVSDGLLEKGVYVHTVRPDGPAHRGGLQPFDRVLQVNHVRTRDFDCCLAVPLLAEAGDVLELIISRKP
Assay: holdup assay
Set-up: key: below the threshold = too weak to quantify, mostly under pKd 3.1 to 4
Conditions: plain residues with an end cap or a label only (N-terminal biotin on a linker: ado-ado)

Row | Binder | pKd
16 | B1 | below the threshold

Target: MAGI1_1, Q96QZ7
Sequence (Q96QZ7 1-106): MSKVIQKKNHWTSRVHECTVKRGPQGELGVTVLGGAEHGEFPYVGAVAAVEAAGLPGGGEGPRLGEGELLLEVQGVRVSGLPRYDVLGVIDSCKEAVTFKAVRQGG
Assay: holdup assay
Set-up: key: below the threshold = too weak to quantify, mostly under pKd 3.1 to 4
Conditions: plain residues with an end cap or a label only (N-terminal biotin on a linker: ado-ado)

Row | Binder | pKd
17 | B1 | below the threshold

Target: LNX1_3, Q8TBB1
Sequence (Q8TBB1 500-596): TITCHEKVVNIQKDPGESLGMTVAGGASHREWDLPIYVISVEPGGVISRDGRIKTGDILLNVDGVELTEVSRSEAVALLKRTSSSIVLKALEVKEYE
Assay: holdup assay
Set-up: key: below the threshold = too weak to quantify, mostly under pKd 3.1 to 4
Conditions: plain residues with an end cap or a label only (N-terminal biotin on a linker: ado-ado)

Row | Binder | pKd
18 | B1 | below the threshold

Target: T6, SNTB1, Q13884
Assay: holdup assay
Set-up: key: below the threshold = too weak to quantify, mostly under pKd 3.1 to 4
Conditions: plain residues with an end cap or a label only (N-terminal biotin on a linker: ado-ado)

Row | Binder | pKd
19 | B1 | 4.8

Target: T7, RADIL, Q96JH8
Assay: holdup assay
Set-up: key: below the threshold = too weak to quantify, mostly under pKd 3.1 to 4
Conditions: plain residues with an end cap or a label only (N-terminal biotin on a linker: ado-ado)

Row | Binder | pKd
20 | B1 | below the threshold

Target: DLG4_2, P78352
Sequence (P78352 155-259): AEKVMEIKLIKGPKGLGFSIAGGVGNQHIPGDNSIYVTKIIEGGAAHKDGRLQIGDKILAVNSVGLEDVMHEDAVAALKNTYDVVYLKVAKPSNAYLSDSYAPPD
Assay: holdup assay
Set-up: key: below the threshold = too weak to quantify, mostly under pKd 3.1 to 4
Conditions: plain residues with an end cap or a label only (N-terminal biotin on a linker: ado-ado)

Row | Binder | pKd
21 | B1 | 4.05

Target: IL16_4, Q14005
Sequence (Q14005 1229-1329): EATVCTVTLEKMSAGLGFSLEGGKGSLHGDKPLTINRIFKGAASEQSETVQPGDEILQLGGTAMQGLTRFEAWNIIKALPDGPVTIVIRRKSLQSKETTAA
Assay: holdup assay
Set-up: key: below the threshold = too weak to quantify, mostly under pKd 3.1 to 4
Conditions: plain residues with an end cap or a label only (N-terminal biotin on a linker: ado-ado)

Row | Binder | pKd
22 | B1 | below the threshold

Target: LNX1_1, Q8TBB1
Sequence (Q8TBB1 261-371): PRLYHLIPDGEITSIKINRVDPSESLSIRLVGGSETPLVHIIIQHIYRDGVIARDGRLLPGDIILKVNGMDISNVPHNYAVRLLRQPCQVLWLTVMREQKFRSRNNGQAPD
Assay: holdup assay
Set-up: key: below the threshold = too weak to quantify, mostly under pKd 3.1 to 4
Conditions: plain residues with an end cap or a label only (N-terminal biotin on a linker: ado-ado)

Row | Binder | pKd
23 | B1 | 3.59

Target: Inadl_6, Q8NI35
Sequence (Q8NI35 1058-1167): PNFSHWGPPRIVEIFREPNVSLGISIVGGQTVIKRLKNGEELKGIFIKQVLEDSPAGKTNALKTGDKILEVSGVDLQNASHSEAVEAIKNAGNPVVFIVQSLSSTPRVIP
Assay: holdup assay
Set-up: key: below the threshold = too weak to quantify, mostly under pKd 3.1 to 4
Conditions: plain residues with an end cap or a label only (N-terminal biotin on a linker: ado-ado)

Row | Binder | pKd
24 | B1 | below the threshold

Target: PICK1, Q9NRD5
Sequence (Q9NRD5 17-115): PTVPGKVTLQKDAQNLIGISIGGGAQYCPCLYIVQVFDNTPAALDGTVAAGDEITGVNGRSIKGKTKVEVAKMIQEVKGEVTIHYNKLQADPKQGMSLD
Assay: holdup assay
Set-up: key: below the threshold = too weak to quantify, mostly under pKd 3.1 to 4
Conditions: plain residues with an end cap or a label only (N-terminal biotin on a linker: ado-ado)

Row | Binder | pKd
25 | B1 | 3.97

Target: PDZRN4_1, Q6ZMN7
Sequence (Q6ZMN7 213-318): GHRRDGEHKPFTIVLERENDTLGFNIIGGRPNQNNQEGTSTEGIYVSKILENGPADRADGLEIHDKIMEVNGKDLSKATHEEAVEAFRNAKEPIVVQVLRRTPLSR
Assay: holdup assay
Set-up: key: below the threshold = too weak to quantify, mostly under pKd 3.1 to 4
Conditions: plain residues with an end cap or a label only (N-terminal biotin on a linker: ado-ado)

Row | Binder | pKd
26 | B1 | below the threshold

Target: DLG4_3, P78352
Sequence (P78352 306-403): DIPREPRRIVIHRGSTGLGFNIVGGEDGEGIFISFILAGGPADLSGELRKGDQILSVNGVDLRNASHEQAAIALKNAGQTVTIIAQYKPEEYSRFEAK
Assay: holdup assay
Set-up: key: below the threshold = too weak to quantify, mostly under pKd 3.1 to 4
Conditions: plain residues with an end cap or a label only (N-terminal biotin on a linker: ado-ado)

Row | Binder | pKd
27 | B1 | below the threshold

Target: SCRIB_3, Q14160
Sequence (Q14160 999-1103): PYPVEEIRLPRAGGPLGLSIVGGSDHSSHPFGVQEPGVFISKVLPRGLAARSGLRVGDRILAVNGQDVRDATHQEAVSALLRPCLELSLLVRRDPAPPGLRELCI
Assay: holdup assay
Set-up: key: below the threshold = too weak to quantify, mostly under pKd 3.1 to 4
Conditions: plain residues with an end cap or a label only (N-terminal biotin on a linker: ado-ado)

Row | Binder | pKd
28 | B1 | 4.34

Target: GRIP2_4, Q9C0E4
Sequence (Q9C0E4 446-548): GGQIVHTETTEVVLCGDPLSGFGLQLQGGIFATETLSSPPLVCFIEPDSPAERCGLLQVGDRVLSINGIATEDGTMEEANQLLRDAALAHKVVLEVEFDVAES
Assay: holdup assay
Set-up: key: below the threshold = too weak to quantify, mostly under pKd 3.1 to 4
Conditions: plain residues with an end cap or a label only (N-terminal biotin on a linker: ado-ado)

Row | Binder | pKd
29 | B1 | below the threshold

Target: FRMPD4, Q14CM0
Sequence (Q14CM0 67-160): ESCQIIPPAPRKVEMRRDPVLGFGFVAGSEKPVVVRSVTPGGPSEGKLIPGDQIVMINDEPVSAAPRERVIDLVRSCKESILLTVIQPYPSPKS
Assay: holdup assay
Set-up: key: below the threshold = too weak to quantify, mostly under pKd 3.1 to 4
Conditions: plain residues with an end cap or a label only (N-terminal biotin on a linker: ado-ado)

Row | Binder | pKd
30 | B1 | below the threshold
